In assay [1] the target is Helminth lysate. The experiment in a line: ELISA on helminth lysate; (++) 10-100 x background.
Assay [2] deals with Helminth lysate. The experiment in a line: direct fluorescent ELISA on helminth lysate.
Assay [3] has as its target Helminth lysate. The experiment in a line: ELISA on helminth lysate; (+++) >100 x background. Background: An ELISA detects its analyte on a solid surface through an enzyme-linked reagent.
In assay [4] the target is T1, Dust mite allergen Der p 2 (dust mite (Dermatophagoides pteronyssinus)) (UniProt P49278).
T1 sequence (looked up): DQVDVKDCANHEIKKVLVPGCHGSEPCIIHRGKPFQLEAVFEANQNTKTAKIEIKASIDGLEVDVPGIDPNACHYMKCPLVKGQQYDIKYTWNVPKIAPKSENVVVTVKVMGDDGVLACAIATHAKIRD
The experiment in a line: direct ELISA, Der p2 coated at 5 µg/mL, two-fold dilutions of IgE, anti-human IgE secondary, OD 450 nm.

Experimental findings from US20190353661A1 are described below.

As a reminder, the EC50 is the midpoint of the concentration-response curve. Higher therefore signals weaker potency.

B1: Human IgE mAb 11H12 (antibody, V domains shown)
VH: QVQLVESGGDLVTPGGSLRLSCAASGFAFSGYYMSWIRQAPGKGLEWISYINSNGLTISYADSVKGRFTVSRDNAKNSLFLQMSSLRAEDTAIYYCARDWGTTLVTFDLWGQGTLVTVSS
VL: QPVLTQSSSASASMGSSAKLTCTLSSGHRGYNIAWLQQHPGKAPLYLTNLEGSDSYKNDRLTVSSSGADRYLTISNLQPEDEATYYCFTWDSDSRVFGGGTHLTVL
B1 displayed a fold over background with Helminth lysate [1] of 10 to 100 fold. In the assay with Helminth lysate [2], this molecule displayed an RFU of 1000 RFU and a fold over background (times background) of 10.

B2: Human IgE mAb 7G12 (antibody, V domains shown)
VH: QVHLVQSGVDVKKPGASVKLSCKTSGYTFTNYGITWVRQAPGQGLEWMGWISTYDGATNYSQNLQGRIIMTTDTSKRTAYLQMRSLRSDDTAVYYCARGRDSPDHWGQGTLVTVSS
VL: DIQMTQSPSTLSASVGDRVTITCRASQSINRWLAWYQQKPGTAPKLLIFKASTLDSGVPARFSGTGSETEFSLTINSLQPDDFATYYCQQYDHFPHTFGPGTKLDIK
As to B2, the RFU in the assay with Helminth lysate [2] was 40000 RFU. In addition, the fold over background with Helminth lysate [3] was > 100 fold.

B3: Human IgE mAb 1A5 (antibody, V domains shown)
VH: EVQLVESGGGVVQPGRSLRLSCAGSGFTFSTYVMHWVRQAPGKGLEWVAVISYDGTNKYYADSMKGRFTISRDNSKNTLYLQLNRLRAEDTAVYYCAKTMDDSSGYYCPDYW
VL: SSELTQDPAVSVALGQTVKITCQGDSLRNYFANWYQQKPGQAPVLVIYGQNNRPSGIPDRFSGSTSGNTGSLTITGAQAEDEADYYCNSRDSSGNHLYVFG
In the assay with Helminth lysate [1], B3 displayed a fold over background of 10 to 100 fold.

B4: Human IgE mAb 2G1 (antibody)
VH: EFQLVESGGGLIQPGGSLRLSCAGSGFTVTTNYMAWVRQAPGKGLEWVSTIYSAGSTFYADSVKGRFTISGDNSKNTLYLQMGSLRAEDTAVYYCARENPAQDAFDIWAKDTMVTVSSASF
VL: EFSYELTQPLSVSVALGQTARITCGGNNIGSKNVHWYQQKPGLAPVLVIYRDSNRPSGIPARFSGSSSGNTATLTISSAQAGDEADYYCHVWDTSTVVFGGGTKLTVLSLPKAAPSVTLFPPSSEELQANKATLVCLISDFYPGAVTVAWKADSSPVKAGVETTTPSKQSNNKYAASSYLSLTPEQWKSHKSYSCQVTHEGSTVEKTVAPTECS
As for B4, the EC50 in assay [4] was 7.1 ng/mL.
